Measurements as given in the supplement of paper PMC7877785.
± gives the uncertainty stated by the source.

Experiment: self-splicing fitness, log relative to wild type (ln ratio); higher = more splicing; Tetrahymena group I intron in knt gene, E. coli kanamycin selection, DiMSum; sequences stand for … in CUCUCU…GGAGGGAAAAGUUAUCAGGCAUGCACCUGGUAGCUAGUCUUUAAACCAAUAGAUUGCAUCGGUUUAAAAGGCAAGACCGUCAAAUUGCGGGAAAGGGGUCAACAGCCGUUCAGUACCAAGUCUCAGGGGAAACUUUGAGAUGGCCUUGCAAAGGGUAUGGUAAUAAGCUGACGGACAUGGUCCUAACCACGCAGCCAAGUCCUAAGUCAACAGAUCUUCUGUUGAUAUGGAUGCAGUUCACAGACUAAAUGUCGGUCGGGGAAGAUGUAUUCUUCUCAUAAGAUAUAGUCGGACCUCUCCUUAAUGGGAGCUAGCGGAUGAAGUGAUGCAACACUGGAGCCGCUGGGAACUAAUUUGUAUGCGAAAGUAUAUUGAUUAGUUUUGGAGUACUCGUGGUCG
Outline: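 Library with all eight P1ex-region intron nucleotides randomised, intron inside the knt kanamycin-resistance gene on pET-22b(+), in E. coli BL21(DE3). Cells grew overnight at 37°C or 30°C on LB agar with or without 25 μg/mL kanamycin (plus 100 μg/mL carbenicillin, 50 μM IPTG, 0.2% rhamnose), in six replicate transformations. Pooled colonies were amplicon-sequenced on Illumina HiSeq 2500. DiMSum fitness is the error-weighted combination of wild-type-normalised replicate fold changes, kanamycin versus none.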

| Sequence | self-splicing fitness (ln) (30 °C) | self-splicing fitness (ln) (37 °C) |
| --- | --- | --- |
| UGUAAGCAAUAUUACGUUUA | -0.814 ± 0.16 | -1.51 ± 0.14 |
| UGUCAGCAAUAUUACGAAUC | -2.79 ± 0.28 | -1.08 ± 0.22 |
| UGUCAGCAAUAUUACGAGAU | -3.11 ± 0.22 | -2.56 ± 0.27 |
| UGUCAGCAAUAUUACGCACA | -0.467 ± 0.083 | -0.355 ± 0.093 |
| UGUCAGCAAUAUUACGCCUG | 0.351 ± 0.072 | 0.582 ± 0.11 |
| UGUCAGCAAUAUUACGCGGC | -3.06 ± 0.24 | -2.09 ± 0.31 |
| UGUCAGCAAUAUUACGCGUA | -0.0687 ± 0.063 | 0.148 ± 0.073 |
| UGUCAGCAAUAUUACGCUGU | -3.1 ± 0.23 | -1.63 ± 0.19 |
| UGUCAGCAAUAUUACGGAGA | -1.58 ± 0.1 | -0.867 ± 0.091 |
| UGUCAGCAAUAUUACGGAUU | -1.57 ± 0.083 | -0.507 ± 0.12 |
| UGUCAGCAAUAUUACGGCAU | -3.01 ± 0.15 | -2.48 ± 0.23 |
| UGUCAGCAAUAUUACGGCUG | -2.9 ± 0.18 | -0.843 ± 0.18 |
| UGUCAGCAAUAUUACGGGAA | -1.71 ± 0.12 | -0.986 ± 0.11 |
| UGUCAGCAAUAUUACGGGAG | -2.78 ± 0.17 | -1.68 ± 0.14 |
| UGUCAGCAAUAUUACGGGUC | -3.4 ± 0.14 | -2.66 ± 0.15 |
| UGUCAGCAAUAUUACGUAAU | -1.03 ± 0.08 | -0.593 ± 0.089 |
| UGUCAGCAAUAUUACGUACC | -0.242 ± 0.11 | -0.159 ± 0.13 |
| UGUCAGCAAUAUUACGUCGG | -1.32 ± 0.078 | -0.266 ± 0.099 |
| UGUCAGCAAUAUUACGUUAG | -1.07 ± 0.067 | -0.704 ± 0.065 |
| UGUCAGCAAUAUUACGUUAU | -3.1 ± 0.12 | -1.77 ± 0.11 |

| Sequence | self-splicing fitness (ln) (30 °C) | self-splicing fitness (ln) (37 °C) |
| --- | --- | --- |
| UGUCAGCAAUAUUACGUUUG | -1.26 ± 0.061 | 0.085 ± 0.095 |
| UGUGAGCAAUAUUACGAAAC | – | -1.59 ± 0.35 |
| UGUGAGCAAUAUUACGAACC | -2.06 ± 0.24 | -0.336 ± 0.27 |
| UGUGAGCAAUAUUACGACCU | -0.867 ± 0.17 | 0.0453 ± 0.26 |
| UGUGAGCAAUAUUACGAGGA | -2.55 ± 0.29 | -2.89 ± 0.31 |
| UGUGAGCAAUAUUACGAGGC | -3.2 ± 0.28 | -3.1 ± 0.36 |
| UGUGAGCAAUAUUACGAGGG | -3.77 ± 0.3 | -3.54 ± 0.42 |
| UGUGAGCAAUAUUACGCAAA | -3.07 ± 0.37 | -1.8 ± 0.25 |
| UGUGAGCAAUAUUACGCAGC | – | -1.77 ± 0.4 |
| UGUGAGCAAUAUUACGCGCC | -2.07 ± 0.17 | -1.9 ± 0.38 |
| UGUGAGCAAUAUUACGCGUU | -2.62 ± 0.2 | -1.89 ± 0.25 |
| UGUGAGCAAUAUUACGCUGC | -1.9 ± 0.25 | – |
| UGUGAGCAAUAUUACGCUUG | -3.29 ± 0.31 | -3.13 ± 0.47 |
| UGUGAGCAAUAUUACGGAAG | -2.97 ± 0.25 | -1.76 ± 0.26 |
| UGUGAGCAAUAUUACGGGCG | -0.245 ± 0.1 | 0.233 ± 0.16 |
| UGUGAGCAAUAUUACGGGGG | -3.23 ± 0.26 | -2.35 ± 0.23 |
| UGUGAGCAAUAUUACGGGUU | -3.22 ± 0.31 | -1.59 ± 0.28 |
| UGUGAGCAAUAUUACGGUAA | -2.56 ± 0.31 | -2.25 ± 0.3 |
| UGUGAGCAAUAUUACGGUCU | -3.01 ± 0.17 | -2.19 ± 0.2 |
